# Patent publication US20250163127A1
# Several values for one entry are separate records, joined by “and”; a condition that tells them apart may be missing. Equal entries are not always repeated.
# Target: CD28 (human) (UniProt P10747)
# Experiment: flow cytometry, Jurkat cells (CD28)
# wild-type CD155 IgV-Fc (Fc fusion), sequence (chain): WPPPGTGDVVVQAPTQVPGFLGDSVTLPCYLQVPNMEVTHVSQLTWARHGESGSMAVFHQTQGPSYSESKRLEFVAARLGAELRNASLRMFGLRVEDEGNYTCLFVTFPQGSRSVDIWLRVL
row,Substance,MFI at 33.3 nM
1,variant CD80 E35D/M47L/A71G/L85Q (Fc fusion),1440 MFI

# Target: CD112R (human) (UniProt Q6DKI7)
# Experiment: flow cytometry, transfected HEK293 cells
# CD112R (human), sequence (Q6DKI7 whole entry): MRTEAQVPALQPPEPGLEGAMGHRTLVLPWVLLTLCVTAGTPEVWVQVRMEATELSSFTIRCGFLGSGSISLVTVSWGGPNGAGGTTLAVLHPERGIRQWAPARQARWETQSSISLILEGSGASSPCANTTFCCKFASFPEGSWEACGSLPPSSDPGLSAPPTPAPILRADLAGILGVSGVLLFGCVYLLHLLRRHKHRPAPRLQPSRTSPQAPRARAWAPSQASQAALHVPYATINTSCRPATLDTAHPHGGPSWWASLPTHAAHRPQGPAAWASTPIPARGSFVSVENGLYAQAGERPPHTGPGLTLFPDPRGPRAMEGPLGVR
Substance,MFI at 100 nM,fold increase to WT ECD
"variant CD155 IgV-Fc, L104E (Fc fusion)",1800,1.01 fold
"variant CD155 IgV-Fc, Q62F, L104E, G111R (Fc fusion)",1700,–
"variant CD155 IgV-Fc, S42A, L104Q, G111R (Fc fusion)",1820,–
"variant CD155 IgV-Fc, S42A, S52L, L104E, G111R (Fc fusion)",1780,1 fold
"variant CD155 IgV-Fc, S42C (Fc fusion)",1680,–
"variant CD155 IgV-Fc, S42G (Fc fusion)",1820,1.02 fold
"variant CD155 IgV-Fc, S42L (Fc fusion)",1740,–
"variant CD155 IgV-Fc, S42N (Fc fusion)",1700,–
"variant CD155 IgV-Fc, S42N, S52E, V57L, L104E (Fc fusion)",1690,–
"variant CD155 IgV-Fc, S42V, S52E (Fc fusion)",1810,–
"variant CD155 IgV-Fc, S42W, S52R, Q62Y, L104Q (Fc fusion)",1820,–
"variant CD155 IgV-Fc, S52L, L104E (Fc fusion)",1760,0.99 fold
"variant CD155 IgV-Fc, S52M, Q62Y (Fc fusion)",1770,–
"variant CD155 IgV-Fc, S52Q (Fc fusion)",1790,1 fold
"variant CD155 IgV-Fc, S52W (Fc fusion)",1610,–
"variant CD155 IgV-Fc, T45Q, S52R, G111R (Fc fusion)",1790,1.01 fold
wild-type CD155 IgV-Fc (Fc fusion),2170 and 1740 and 2940,1.22 fold and 0.98 fold and 1.65 fold

# Target: T1, CD226 (human) (UniProt Q15762)
# T1 sequence: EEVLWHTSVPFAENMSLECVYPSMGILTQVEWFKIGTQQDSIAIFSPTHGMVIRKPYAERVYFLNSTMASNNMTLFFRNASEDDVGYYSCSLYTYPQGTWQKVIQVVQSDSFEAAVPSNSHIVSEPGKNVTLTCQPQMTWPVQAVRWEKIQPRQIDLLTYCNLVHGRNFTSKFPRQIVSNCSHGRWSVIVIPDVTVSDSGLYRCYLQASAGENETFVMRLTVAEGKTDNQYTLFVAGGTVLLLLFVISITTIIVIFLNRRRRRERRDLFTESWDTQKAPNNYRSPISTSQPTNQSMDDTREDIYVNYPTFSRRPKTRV
# Experiment: flow cytometry, transfected HEK293 cells
row,Substance,MFI at 100 nM
1,"variant CD155 IgV-Fc, G111R (Fc fusion)",2790
2,"variant CD155 IgV-Fc, L104E (Fc fusion)",2260
3,"variant CD155 IgV-Fc, L104Q (Fc fusion)",3790
4,"variant CD155 IgV-Fc, Q62F (Fc fusion)",2570
5,"variant CD155 IgV-Fc, Q62F, L104E, G111R (Fc fusion)",2040
6,"variant CD155 IgV-Fc, Q62Y (Fc fusion)",2620
7,"variant CD155 IgV-Fc, S42A (Fc fusion)",2190
8,"variant CD155 IgV-Fc, S42A, L104Q, G111R (Fc fusion)",1900
9,"variant CD155 IgV-Fc, S42A, S52L, L104E, G111R (Fc fusion)",1890
10,"variant CD155 IgV-Fc, S42A, S52Q, L104Q, G111R (Fc fusion)",2160
11,"variant CD155 IgV-Fc, S42C (Fc fusion)",2100
12,"variant CD155 IgV-Fc, S42C, S52L (Fc fusion)",2150
13,"variant CD155 IgV-Fc, S42C, S52M, Q62F (Fc fusion)",2080
14,"variant CD155 IgV-Fc, S42G (Fc fusion)",2450
15,"variant CD155 IgV-Fc, S42G, S52L, Q62F, L104Q (Fc fusion)",2160
16,"variant CD155 IgV-Fc, S42L (Fc fusion)",2190
17,"variant CD155 IgV-Fc, S42N (Fc fusion)",1910
18,"variant CD155 IgV-Fc, S42N, S52E, V57L, L104E (Fc fusion)",1740
19,"variant CD155 IgV-Fc, S42V, S52E (Fc fusion)",2270
20,"variant CD155 IgV-Fc, S42W, S52R, Q62Y, L104Q (Fc fusion)",2300
21,"variant CD155 IgV-Fc, S52L, L104E (Fc fusion)",2210
22,"variant CD155 IgV-Fc, S52M, Q62Y (Fc fusion)",2000
23,"variant CD155 IgV-Fc, S52Q (Fc fusion)",2020
24,"variant CD155 IgV-Fc, S52W (Fc fusion)",2040
25,"variant CD155 IgV-Fc, T45Q, S52R, G111R (Fc fusion)",2080
26,wild-type CD155 IgV-Fc (Fc fusion),2320 and 2370 and 4690

# Target: T2, CD96 (human) (UniProt P40200)
# T2 sequence: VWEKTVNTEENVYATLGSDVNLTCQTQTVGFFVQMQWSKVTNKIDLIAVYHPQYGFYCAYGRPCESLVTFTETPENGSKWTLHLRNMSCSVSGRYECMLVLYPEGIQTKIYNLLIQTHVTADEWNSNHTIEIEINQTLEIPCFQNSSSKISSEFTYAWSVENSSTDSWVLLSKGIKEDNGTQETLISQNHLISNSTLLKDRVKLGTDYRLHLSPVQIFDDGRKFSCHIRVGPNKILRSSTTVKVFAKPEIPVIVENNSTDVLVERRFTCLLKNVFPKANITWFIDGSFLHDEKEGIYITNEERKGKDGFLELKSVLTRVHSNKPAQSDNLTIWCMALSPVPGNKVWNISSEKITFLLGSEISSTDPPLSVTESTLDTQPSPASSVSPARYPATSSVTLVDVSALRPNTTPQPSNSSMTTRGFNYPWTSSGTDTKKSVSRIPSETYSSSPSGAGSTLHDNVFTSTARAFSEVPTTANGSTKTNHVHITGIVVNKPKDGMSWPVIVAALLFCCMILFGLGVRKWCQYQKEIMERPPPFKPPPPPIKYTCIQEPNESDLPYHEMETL
# Experiment: flow cytometry, transfected HEK293 cells
Substance,MFI at 100 nM,fold increase to WT ECD
"variant CD155 IgV-Fc, G111R (Fc fusion)",3320,–
"variant CD155 IgV-Fc, L104E (Fc fusion)",1560,0.02 fold
"variant CD155 IgV-Fc, L104Q (Fc fusion)",1540,–
"variant CD155 IgV-Fc, Q62F (Fc fusion)",2760,–
"variant CD155 IgV-Fc, Q62F, L104E, G111R (Fc fusion)",1520,–
"variant CD155 IgV-Fc, Q62Y (Fc fusion)",1830,–
"variant CD155 IgV-Fc, S42A (Fc fusion)",1620,–
"variant CD155 IgV-Fc, S42A, L104Q, G111R (Fc fusion)",1700,–
"variant CD155 IgV-Fc, S42A, S52L, L104E, G111R (Fc fusion)",1610,0.02 fold
"variant CD155 IgV-Fc, S42A, S52Q, L104Q, G111R (Fc fusion)",1640,–
"variant CD155 IgV-Fc, S42C (Fc fusion)",1590,–
"variant CD155 IgV-Fc, S42C, S52L (Fc fusion)",1480,–
"variant CD155 IgV-Fc, S42C, S52M, Q62F (Fc fusion)",1480,–
"variant CD155 IgV-Fc, S42G (Fc fusion)",1700,0.02 fold
"variant CD155 IgV-Fc, S42G, S52L, Q62F, L104Q (Fc fusion)",1640,–
"variant CD155 IgV-Fc, S42L (Fc fusion)",1620,–
"variant CD155 IgV-Fc, S42N (Fc fusion)",1690,–
"variant CD155 IgV-Fc, S42N, S52E, V57L, L104E (Fc fusion)",1540,–
"variant CD155 IgV-Fc, S42V, S52E (Fc fusion)",2530,–
"variant CD155 IgV-Fc, S42W, S52R, Q62Y, L104Q (Fc fusion)",1760,–
"variant CD155 IgV-Fc, S52L, L104E (Fc fusion)",1830,0.02 fold
"variant CD155 IgV-Fc, S52M, Q62Y (Fc fusion)",1650,–
"variant CD155 IgV-Fc, S52Q (Fc fusion)",1820,0.02 fold
"variant CD155 IgV-Fc, S52W (Fc fusion)",1710,–
"variant CD155 IgV-Fc, T45Q, S52R, G111R (Fc fusion)",2340,0.02 fold
wild-type CD155 IgV-Fc (Fc fusion),1890 and 1680 and 3270,0.02 fold

# Target: T3, TIGIT (human) (UniProt Q495A1)
# T3 sequence: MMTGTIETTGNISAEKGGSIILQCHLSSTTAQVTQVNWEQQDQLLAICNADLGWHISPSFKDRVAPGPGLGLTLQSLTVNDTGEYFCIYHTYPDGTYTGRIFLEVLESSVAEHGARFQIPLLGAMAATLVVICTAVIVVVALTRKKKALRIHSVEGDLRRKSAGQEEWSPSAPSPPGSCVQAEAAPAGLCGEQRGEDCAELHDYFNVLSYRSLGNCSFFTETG
# Experiment: flow cytometry, transfected HEK293 cells
Substance,MFI at 100 nM,fold increase to WT ECD
"variant CD155 IgV-Fc, L104E (Fc fusion)",3140,–
"variant CD155 IgV-Fc, Q62F (Fc fusion)",2210,–
"variant CD155 IgV-Fc, Q62Y (Fc fusion)",2530,–
"variant CD155 IgV-Fc, S42A, S52L, L104E, G111R (Fc fusion)",2260,–
"variant CD155 IgV-Fc, S42G (Fc fusion)",4840,–
"variant CD155 IgV-Fc, S52L, L104E (Fc fusion)",4320,–
"variant CD155 IgV-Fc, S52Q (Fc fusion)",2290,–
"variant CD155 IgV-Fc, T45Q, S52R, G111R (Fc fusion)",4090,–
wild-type CD155 IgV-Fc (Fc fusion),1960 and 2180 and 4690,0 fold
